Assay results reported in the Immune Epitope Database (IEDB).

Molecular target: HLA-A*02:01
Test: IEDB peptide-MHC binding, purified MHC/competitive/fluorescence; ≥ and ≤ were set here for values at or beyond the usual limits of such assays
Settings: source organism: Homo sapiens

Sequence	IC50
AAAFVNQHL	5.02 µM
AAAFVNQHLC	≥ 100 µM
AAFVNQHLCG	≥ 100 µM
AEDLQVGQV	≥ 100 µM
AEDLQVGQVE	≥ 100 µM
AFVNQHLCG	≥ 100 µM
AFVNQHLCGS	≥ 100 µM
AGSLQPLAL	≥ 100 µM
AGSLQPLALE	≥ 100 µM
ALLALWGPD	≥ 100 µM
ALWGPDPAA	0.88 µM
CCTSICSLY	≥ 100 µM
CCTSICSLYQ	≥ 100 µM
CTSICSLYQ	≥ 100 µM
CTSICSLYQL	≥ 97.7 µM
DLQVGQVEL	≥ 100 µM
DLQVGQVELG	≥ 100 µM
DPAAAFVNQ	≥ 100 µM
DPAAAFVNQH	≥ 100 µM
EAEDLQVGQ	≥ 100 µM
EDLQVGQVE	≥ 100 µM
EDLQVGQVEL	≥ 100 µM
ELGGGPGAG	≥ 100 µM
ELGGGPGAGS	≥ 100 µM

Sequence	IC50
EQCCTSICS	≥ 100 µM
EQCCTSICSL	≥ 100 µM
ERGFFYTPK	≥ 100 µM
GAGSLQPLAL	≥ 100 µM
GGGPGAGSL	≥ 100 µM
GGGPGAGSLQ	≥ 100 µM
GGPGAGSLQ	≥ 100 µM
GGPGAGSLQP	≥ 100 µM
GIVEQCCTS	≥ 100 µM
GPDPAAAFV	≥ 100 µM
GPDPAAAFVN	≥ 100 µM
GPGAGSLQP	≥ 100 µM
GQVELGGGP	≥ 100 µM
GQVELGGGPG	≥ 100 µM
GSLQPLALE	≥ 100 µM
GSLQPLALEG	≥ 100 µM
ICSLYQLEN	≥ 100 µM
ICSLYQLENY	≥ 100 µM
IVEQCCTSI	≥ 100 µM
LALEGSLQK	≥ 100 µM
LALLALWGP	≥ 100 µM
LALWGPDPA	≥ 100 µM
LGGGPGAGS	≥ 100 µM
LGGGPGAGSL	≥ 100 µM

Sequence	IC50
LLALLALWG	≥ 100 µM
LLALLALWGP	29.6 µM
LLALWGPDPA	1.96 µM
LLPLLALLA	1.37 µM
LLPLLALLAL	5.84 µM
LPLLALLAL	11.8 µM
LPLLALLALW	≥ 100 µM
LQPLALEGS	≥ 100 µM
LQPLALEGSL	≥ 100 µM
LQVGQVELG	≥ 100 µM
LQVGQVELGG	≥ 100 µM
LWGPDPAAA	≥ 100 µM
LWGPDPAAAF	≥ 100 µM
LYQLENYCN	≥ 100 µM
PAAAFVNQH	≥ 100 µM
PAAAFVNQHL	≥ 100 µM
PDPAAAFVN	≥ 100 µM
PDPAAAFVNQ	≥ 100 µM
PGAGSLQPL	≥ 100 µM
PGAGSLQPLA	≥ 100 µM
PLALEGSLQ	≥ 100 µM
PLALEGSLQK	≥ 100 µM
PLLALLALW	≥ 100 µM
PLLALLALWG	43.5 µM

Sequence	IC50
QCCTSICSLY	≥ 100 µM
QPLALEGSL	≥ 100 µM
QPLALEGSLQ	≥ 100 µM
QVELGGGPG	≥ 100 µM
QVELGGGPGA	≥ 100 µM
QVGQVELGG	≥ 100 µM
QVGQVELGGG	≥ 100 µM
SICSLYQLE	≥ 100 µM
SICSLYQLEN	≥ 100 µM
SLQPLALEGS	≥ 88 µM
SLYQLENYCN	≥ 100 µM
TSICSLYQL	≥ 100 µM
TSICSLYQLE	≥ 100 µM
VELGGGPGA	≥ 100 µM
VELGGGPGAG	≥ 100 µM
VEQCCTSIC	≥ 100 µM
VEQCCTSICS	≥ 100 µM
VGQVELGGG	≥ 100 µM
VGQVELGGGP	≥ 100 µM
WGPDPAAAF	≥ 100 µM
WGPDPAAAFV	4.46 µM
